The subject of data set [1] is replication protein A (RPA). Conditions: cited from earlier work. The source says:
This is the first report to identify a particular protein sequence with D/E repeats capable of competition with Z-DNA for binding to Zα, while the potential of acidic residues for DNA mimicry, referring to B-DNA or ssDNA, have been observed previously.

The target of data set [2] is T1, Sso7d (UniProt P39476 2-64).
T1 sequence: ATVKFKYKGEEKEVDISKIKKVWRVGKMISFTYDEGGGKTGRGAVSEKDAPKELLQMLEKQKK
The data set can be described thus: fluorescence polarization; FP: 20 mM HEPES-NaOH pH 7.5, 50 mM NaCl, 1 mM DTT, 30 ul; temperature not stated; CD buffer not in material. Conditions: unlabelled version also purchased; blunt; self-complementary duplex, annealed from 85°C.

The target in data set [3] is T2, Zα (Z-DNA binding domain of ADAR1) (Homo sapiens, UniProt P55265 133-209).
T2 sequence: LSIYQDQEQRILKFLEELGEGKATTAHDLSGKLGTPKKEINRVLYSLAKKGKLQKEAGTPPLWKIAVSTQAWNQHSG
The data set is described as above. Conditions: protein: recombinant; tags: His10 (pET16b) or tag-free after TEV (pMCSG7); chain copies: 2; unlabelled version also purchased; blunt; self-complementary duplex, annealed from 85°C.

In data set [4] the target is MBD3 MBD domain (MBD3MBD) (Homo sapiens, UniProt O95983 1-72). Description: fluorescence polarization; high affinity similar to Zα; Kd value not in material; FP: 20 mM HEPES-NaOH pH 7.5, 50 mM NaCl, 1 mM DTT, 30 ul; temperature not stated; CD buffer not in material. Conditions: protein: recombinant; tags: His6 removed by TEV; unlabelled version also purchased; blunt; self-complementary duplex, annealed from 85°C. Background: In fluorescence polarisation assays a small probe gives low polarisation when free and higher when bound to something large.

Data set [5] has as its target T3, Zα (Homo sapiens, UniProt P55265).
T3 construct: Zα of human ADAR1; residues 133–209; His6 (pMCSG7, followed by a TEV site) (N, cleaved yes); made in house; host or cells: E. coli BL21(DE3)
T3 sequence (P55265 133-209): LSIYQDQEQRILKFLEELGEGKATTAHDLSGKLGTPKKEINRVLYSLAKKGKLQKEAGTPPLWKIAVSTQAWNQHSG
Description: SEC / SDS-PAGE complex formation with Zα. Type of data set: binding. Conditions: Zα 100 μM : protein 25 μM (4:1), ice 1 h, 20 mM Tris–HCl pH 7.5, 50 mM NaCl, 1 mM TCEP. As to the method:
Equimolar amounts (0.1 mM) of Zα and DE-rich peptide were incubated on ice for 1 h in a buffer containing 20 mM HEPES–NaOH pH 7.5, 50 mM NaCl, 1 mM DTT. The mixture was then loaded on a Superdex 30 16/600 column (GE Healthcare) equilibrated in the same buffer. The fractions from the peaks corresponding to Zα alone and the complex of Zα and DE-rich peptide were collected and used for chemical cross-linking.
To analyze complex formation of Zα and other proteins (MBD3, MBD or MBDDE), the mixtures were incubated on ice for 1 h in a buffer containing 20 mM Tris–HCl pH 7.5, 50 mM NaCl, 1 mM TCEP. The mixture was then loaded on a Superdex 75 or Superdex 200 increase 10/300 column (GE Healthcare).

Data set [6] concerns His10-Zα. The data set can be described thus: His10-Zα pull-down from HEK293 lysate with LC-MS/MS. The class given is binding, human. Conditions: HEK293 cell lysate, Ni beads. The method, then: HEK293 cells were collected and the pellet was resuspended in the lysis buffer [(50 mM Tris–HCl pH7.5, 1% NP-40, 150 mM NaCl, 10 mM imidazole, 0.1 mM PMSF, 90 U/ml Benzonaes (Novagen) and EDTA-free protease inhibitor cocktail tablet (Roche)]. Lysate was clarified by centrifugation for 30 min at 16 000 × g at 4°C. The protein concentration was measured by using Bradford assay. 20 mg of HEK293 cell lysate was pre-cleaned by adding 1 ml of Ni sepharose (50% slurry) (GE Healthcare) and rotated at 4°C for 1 h. Add 1 mg of purified His10-Zα protein (buffer only as a negative control) to the pre-cleaned lysate and rotate at 4°C overnight. To capture His10-Zα protein, add 0.2 ml Ni sepharose (50% slurry) and incubate at 4°C for 1 h in a rotation wheel. […] Add trichloroacetic acid to precipitate and concentrate the eluates. The concentrated eluates were resuspended in NuPAGE LDS sample buffer (Invitrogen), run on NuPAGE 12% Bis–Tris gels (Invotrogen) and stained using Instant Blue (Expedeon). […]
To identify Zα-interacting proteins, the entire gel lanes were divided into several horizontal slices and subjected to in-gel trypsin digestion. The digested samples were analyzed by LC–MS/MS using LTQ-Orbitrap XL mass spectrometer (Thermo Fisher Scientific, Bremen, Germany). […]

The nature of data set [7]: Stability of E. coli-expressed protein. Type of data set: physicochemical. Conditions: recombinant E. coli-expressed protein.
In data set [8] the target is T3, Zα. Description: SEC-MALS of Zα and Zα-D/E-rich peptide complexes. Type of data set: binding. Conditions: Zα 2.7 mg/ml, expected ~8.8. The method, then:
SEC−MALS measurements were conducted using a miniDAWN TREOS detector and an Optilab T-rEX differential refractive index detector (Wyatt Technology Corporation) coupled to an Agilent 1260 Infinity HPLC system. The SEC experiments were performed on an ENrich SEC 70 10 × 300 column (Bio-Rad) equilibrated in a buffer containing 20 mM HEPES–NaOH pH 7.5, 50 mM NaCl, 1 mM TCEP and 0.02% NaN3. The protein Zα alone (2.7 mg/ml) or the mixture of Zα and the D/E-rich peptide at various molar ratios and incubation periods as indicated was loaded onto the column at a flow rate of 0.5 ml/min. Bovine serum albumin (A1900; Sigma) was used for system calibration and molecular weights were calculated using ASTRA 6 software (Wyatt Technology Corporation) with a dn/dc value of 0.185 ml/g.
Figure 3. Analysis of complex formation of Zα and the D/E-rich domain. […] The left y axis represents the normalized UV absorbance at 280 nm, while the right y axis represents the molecular weight (Da). The horizontal traces show the calculated molecular weight. […] TEXT PRINTED IN THE PICTURE: (C) Zα: Measured MW (kDa): 9.8 ± 0.1; Expected MW (kDa): ~8.8 | (C) 1Zα: 1DE: Measured MW (kDa): 12.7 ± 0.1; Expected MW (kDa): ~11.6 | (C) 2Zα: 1DE: Measured MW (kDa): 20.8 ± 0.3; Expected MW (kDa): ~20.5
(In general: SEC sorts molecules by how far they enter the pores of the column.)

In data set [9] the test system is d(CG)6 duplex. The data set can be described thus: Circular dichroism of d(CG)6 DNA conformation. The method, then: CD spectra were measured at 24°C on a J-815 Spectrometer (JASCO) using a 1 mm path length quartz cell. Prepare 7.5 μM DNA duplex in a buffer consisting of 5 mM HEPES–NaOH pH 7.5, 25 mM NaCl and 1 mM DTT, and in the absence or presence of indicated concentration of proteins. Spectra were recorded between 235 and 305 nm wavelength with a data pitch of 1 nm, bandwidth of 1 nm and with two accumulations at a scanning speed of 10 nm/min.
Figure 6. Zα can compete with the MBD domain for binding to d(CG)6, but not vice versa. (A) CD spectra of the d(CG)6 duplex in the presence of Zα. CD spectra of (B) the d(CG)6 and (C) the d(C^mG)6 duplex, respectively, in the presence of the MBD domain. (D) Monitoring of the change in CD spectra with the addition of increased amounts of Zα to the pre-incubated mixture of the MBD domain and d(CG)6. (E) Monitoring of the change in CD spectra with the addition of increased amount of the MBD domain to the pre-incubated mixture of Zα and d(CG)6. Spectra are expressed in absolute values of ellipticity in millidegrees (mdeg).
For orientation: Circular dichroism is the unequal absorption of left and right circularly polarised light.

In data set [10] the target is D/E-rich peptide of MBD3, unlabelled (full-length D/E-rich peptide) (human). The data set can be described thus: SEC-MALS; Zα and D/E-rich peptide, equimolar (1, 16, 29 h) or 4:1 (1 h on ice); ENrich SEC 70 column; 20 mM HEPES-NaOH pH 7.5, 50 mM NaCl, 1 mM TCEP, 0.02% NaN3.

Values joined by “and” are separate entries in the source; they are usually repeats but may differ in a detail not shown here. Equal values may be shown once.

A word on the Kd: it is the constant that tells how readily two partners part at equilibrium.

As for “EDWAGLDEDED [DSS1, protein whose D/E-rich segment (EDWAGLDEDED) acts as a DNA mimic]”, in data set [1], the “attenuation of the affinity of RPA for ssDNA” value is listed as “acts as a DNA mimic to attenuate the affinity of replication protein A (RPA) for ssDNA”.

B1: d(CG)6 (dsDNA)
DNA 1: CGCGCGCGCGCG
DNA 2: CGCGCGCGCGCG
Take B1: the results for the Kd in [2] and in [3] were 262 ± 23 nM and 40.3 ± 3.2 nM, respectively. For the same molecule, in data set [4], the binding result is listed as “binds”.

B2: MBD3: full-length human MBD3; residue 1–291 (protein)
chain: MERKRWECPALPQGWEREEVPRRSGLSAGHRDVFYYSPSGKKFRSKPQLARYLGGSMDLSTFDFRTGKMLMSKMNKSRQRVRYDSSNQVKGKPDLNTALPVRQTASIFKQPVTKITNHPSNKVKSDPQKAVDQPRQLFWEKKLSGLNAFDIAEELVKTMDLPKGLQGVGPGCTDETLLSAIASALHTSTMPITGQLSAAVEKNPGVWLNTTQPLCKAFMVTDEDIRKQEELVQQVRKRLEEALMADMLAHVEELARDGEAPLDKACAEDDDEEDEEEEEEEPDPDPEMEHV
For the molecule B2, the “complex formation with Zα on SEC” value in [5] is “almost no detectable stable complex formation of Zα and MBD3”. In data set [6], the “pull-down by Zα” value is reported as “could be pulled down by Zα”. For the same molecule, the “protein stability (in words)” value in [7] is “unstable with a large amount of aggregation and degradation”.

B3: Zα, tag-free (Z-DNA binding domain of human ADAR1, residues 133-209), P55265 133-209 (domain or fragment)
chain: LSIYQDQEQRILKFLEELGEGKATTAHDLSGKLGTPKKEINRVLYSLAKKGKLQKEAGTPPLWKIAVSTQAWNQHSG
For B3, the “measured MW, Zα alone” value in data set [8] is given as 9.8 ± 0.1 kDa. In addition, the “DNA conformation after binding” value in data set [9] (CD 235-305 nm, 24°C, 7.5 μM DNA duplex, 5 mM HEPES–NaOH pH 7.5, 25 mM NaCl, 1 mM DTT) was “induced the Z-DNA formation”. The “competition for binding to d(CG)6 (Zα added to pre-incubated MBD domain and d(CG)6)” value in data set [9] (CD, increasing Zα) is listed as “able to compete with the MBD domain for binding to d(CG)6”. In addition, the stoichiometry N (Zα per D/E-rich peptide) in data set [10] was 2 and 1.
